From US20250355001A1 (GTINVENT, published 2025) come the findings set out here.

One test concerns the target T1, dGAE (tau 297-391) (human, UniProt P10636 614-708).
T1 construct: monomer; also called dGAE95
Put plainly: ELISA. The gist of the method:
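Direct or streptavidin-capture binding ELISA with scAb dilution series; signal from anti-human C kappa HRP measured as absorbance.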
A general note: In an ELISA, binding on a coated surface is turned into a signal by an enzyme label.

In test [1] the target is T2, full length human tau protein 2N4R (hT40) (human, UniProt P10636 1-758).
T2 construct: recombinant; also called T441
Put plainly: direct binding ELISA.

T1 sequence (P10636 614-708 limits assumed): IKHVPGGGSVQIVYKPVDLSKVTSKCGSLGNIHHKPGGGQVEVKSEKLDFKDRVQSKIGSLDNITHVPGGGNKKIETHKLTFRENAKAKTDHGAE

B1: E2A6 scAb (scFv, not shown: small tags and cut ends)
scFv: QVQLQESGPSLVKPSQTLSLTCTVSGFSLTDWGVAWVRQAPGKALEWLGTMRSGGTTDDNPALKSRLSITRDTSKSQVSLSLSSVTTEDMAMYYCARGYLSGVHYAWGRGLLVTVSSEGKSSGASGESKVDDRVVRTQPSSVSKSLGQSVSITCSGSSSNVGAGNYVGWFQQVPGSAPKLLIYGATNRASGVPARFSGSKSGVTATLTITSLQAEDEADYYCASIDTSRSHIFGSGTRLTVLG
notes: scAb
As for B1, the binding result was “binds” with dGAE (tau 297-391) and “no binding” in test [1].
